± gives the uncertainty stated by the source.
B1: Kinesin-like protein KIF16B, residues 1213 to 1273; numbered along this chain, Q96L93 (parent)
chain: ETWTVFRRYSRFREMHKTLKLKYAELAALEFPPKKLFGNKDERVIAERRSHLEKYLRDFFS

Variants of: B1
Assay: abundance fitness (aPCA) (normalised: wild type 0, dead -1); higher = more abundant; growth selection in yeast, the domain comes from the species named
Conditions: Homo sapiens

Variant	abundance fitness
ETWTVFRRYSRFREMHKTLKLKYMELAALEFPPKKLFGNKDERVIAERRSHLEKYLRDFFS	-0.107 ± 0.13
ETWTVFRRYSRFREMHKTLKLKYVELAALEFPPKKLFGNKDERVIAERRSHLEKYLRDFFS	-0.321 ± 0.095
ETWTVFRRYSRFREMHKTLKLKYFELAALEFPPKKLFGNKDERVIAERRSHLEKYLRDFFS	-0.331 ± 0.17
ETWTVFRRYSRFREMHKTLKLKYRELAALEFPPKKLFGNKDERVIAERRSHLEKYLRDFFS	0.178 ± 0.049
ETWTVFRRYSRFREMHKTLKLKYWELAALEFPPKKLFGNKDERVIAERRSHLEKYLRDFFS	-0.569 ± 0.12
ETWTVFRRYSRFREMHKTLKLKYSELAALEFPPKKLFGNKDERVIAERRSHLEKYLRDFFS	-0.24 ± 0.1
ETWTVFRRYSRFREMHKTLKLKYTELAALEFPPKKLFGNKDERVIAERRSHLEKYLRDFFS	-0.115 ± 0.1
ETWTVFRRYSRFREMHKTLKLKYQELAALEFPPKKLFGNKDERVIAERRSHLEKYLRDFFS	-0.227 ± 0.12
ETWTVFRRYSRFREMHKTLKLKYEELAALEFPPKKLFGNKDERVIAERRSHLEKYLRDFFS	-0.174 ± 0.1
ETWTVFRRYSRFREMHKTLKLKYLELAALEFPPKKLFGNKDERVIAERRSHLEKYLRDFFS	-0.352 ± 0.075
ETWTVFRRYSRFREMHKTLKLKYPELAALEFPPKKLFGNKDERVIAERRSHLEKYLRDFFS	-0.518 ± 0.33
ETWTVFRRYSRFREMHKTLKLKYGELAALEFPPKKLFGNKDERVIAERRSHLEKYLRDFFS	-0.446 ± 0.11
ETWTVFRRYSRFREMHKTLKLKYAELCALEFPPKKLFGNKDERVIAERRSHLEKYLRDFFS	0.099 ± 0.087
ETWTVFRRYSRFREMHKTLKLKYAELWALEFPPKKLFGNKDERVIAERRSHLEKYLRDFFS	-0.362 ± 0.073
ETWTVFRRYSRFREMHKTLKLKYAELKALEFPPKKLFGNKDERVIAERRSHLEKYLRDFFS	0.286 ± 0.055
ETWTVFRRYSRFREMHKTLKLKYAELNALEFPPKKLFGNKDERVIAERRSHLEKYLRDFFS	-0.281 ± 0.16
ETWTVFRRYSRFREMHKTLKLKYAELVALEFPPKKLFGNKDERVIAERRSHLEKYLRDFFS	-0.041 ± 0.058
ETWTVFRRYSRFREMHKTLKLKYAELQALEFPPKKLFGNKDERVIAERRSHLEKYLRDFFS	0.166 ± 0.09
ETWTVFRRYSRFREMHKTLKLKYAELMALEFPPKKLFGNKDERVIAERRSHLEKYLRDFFS	0.246 ± 0.091
ETWTVFRRYSRFREMHKTLKLKYAELRALEFPPKKLFGNKDERVIAERRSHLEKYLRDFFS	0.245 ± 0.053
ETWTVFRRYSRFREMHKTLKLKYAELTALEFPPKKLFGNKDERVIAERRSHLEKYLRDFFS	0.127 ± 0.078
ETWTVFRRYSRFREMHKTLKLKYAELSALEFPPKKLFGNKDERVIAERRSHLEKYLRDFFS	-0.099 ± 0.069

Variant	abundance fitness
ETWTVFRRYSRFREMHKTLKLKYAELGALEFPPKKLFGNKDERVIAERRSHLEKYLRDFFS	-0.293 ± 0.047
ETWTVFRRYSRFREMHKTLKLKYAELFALEFPPKKLFGNKDERVIAERRSHLEKYLRDFFS	-0.215 ± 0.32
ETWTVFRRYSRFREMHKTLKLKYAELDALEFPPKKLFGNKDERVIAERRSHLEKYLRDFFS	-0.388 ± 0.11
ETWTVFRRYSRFREMHKTLKLKYAELLALEFPPKKLFGNKDERVIAERRSHLEKYLRDFFS	-0.02 ± 0.061
ETWTVFRRYSRFREMHKTLKLKYAELAFLEFPPKKLFGNKDERVIAERRSHLEKYLRDFFS	-0.116 ± 0.34
ETWTVFRRYSRFREMHKTLKLKYAELACLEFPPKKLFGNKDERVIAERRSHLEKYLRDFFS	-0.156 ± 0.13
ETWTVFRRYSRFREMHKTLKLKTAELAALEFPPKKLFGNKDERVIAERRSHLEKYLRDFFS	-0.379 ± 0.14
ETWTVFRRYSRFREMHKTLKLKRAELAALEFPPKKLFGNKDERVIAERRSHLEKYLRDFFS	-0.726 ± 0.094
ETWTVFRRYSRFREMHKTLKLKWAELAALEFPPKKLFGNKDERVIAERRSHLEKYLRDFFS	0.177 ± 0.062
ETWTVFRRYSRFREMHKTLKLKLAELAALEFPPKKLFGNKDERVIAERRSHLEKYLRDFFS	0.279 ± 0.069
ETWTVFRRYSRFREMHKTLKLKAAELAALEFPPKKLFGNKDERVIAERRSHLEKYLRDFFS	0.068 ± 0.076
ETWTVFRRYSRFREMHKTLKLKKAELAALEFPPKKLFGNKDERVIAERRSHLEKYLRDFFS	-0.803 ± 0.28
ETWTVFRRYSRFREMHKTLKLKSAELAALEFPPKKLFGNKDERVIAERRSHLEKYLRDFFS	-0.528 ± 0.15
ETWTVFRRYSRFREMHKTLKLKGAELAALEFPPKKLFGNKDERVIAERRSHLEKYLRDFFS	-0.42 ± 0.086
ETWTVFRRYSRFREMHKTLKLKFAELAALEFPPKKLFGNKDERVIAERRSHLEKYLRDFFS	0.296 ± 0.13
ETWTVFRRYSRFREMHKTLKLKIAELAALEFPPKKLFGNKDERVIAERRSHLEKYLRDFFS	-0.034 ± 0.16
ETWTVFRRYSRFREMHKTLKLKQAELAALEFPPKKLFGNKDERVIAERRSHLEKYLRDFFS	-0.393 ± 0.099
ETWTVFRRYSRFREMHKTLKLKHAELAALEFPPKKLFGNKDERVIAERRSHLEKYLRDFFS	-0.128 ± 0.26
ETWTVFRRYSRFREMHKTLKLKVAELAALEFPPKKLFGNKDERVIAERRSHLEKYLRDFFS	0.39 ± 0.092
ETWTVFRRYSRFREMHKTLKLKPAELAALEFPPKKLFGNKDERVIAERRSHLEKYLRDFFS	-1.06 ± 0.28
ETWTVFRRYSRFREMHKTLKLKCAELAALEFPPKKLFGNKDERVIAERRSHLEKYLRDFFS	0.167 ± 0.078
